Patent US8715959B2, “Substitution mutant receptors and their use in a nuclear receptor-based inducible gene expression system” (priority 2001, dated 2014)

B1: R95A: CfEcR-DEF LBD substitution mutant, Arginine (R) to Alanine (A) (protein, listed as Choristoneura fumiferana)
chain: LTANQQFLIARLIWYQDGYEQPSDEDLKRITQTWQQADDENEESDTPFRQITEMTILTVQLIVEFAKGLPGFAKISQPDQITLLKACSSEVMMLAVARRYDAASDSVLFANNQAYTRDNYRKAGMAYVIEDLLHFCRCMYSMALDNIHYALLTAVVIFSDRPGLEQPQLVEEIQRYYLNTLRIYILNQLSGSARSSVIYGKILSILSELRTLGMQNSNMCISLKLKNRKLPPFLEEIWDV
B2: F48A: CfEcR-DEF LBD substitution mutant, Phenylalanine (F) to Alanine (A) (protein, listed as Choristoneura fumiferana)
chain: LTANQQFLIARLIWYQDGYEQPSDEDLKRITQTWQQADDENEESDTPARQITEMTILTVQLIVEFAKGLPGFAKISQPDQITLLKACSSEVMMLRVARRYDAASDSVLFANNQAYTRDNYRKAGMAYVIEDLLHFCRCMYSMALDNIHYALLTAVVIFSDRPGLEQPQLVEEIQRYYLNTLRIYILNQLSGSARSSVIYGKILSILSELRTLGMQNSNMCISLKLKNRKLPPFLEEIWDV
B3: Y120A: CfEcR-DEF LBD substitution mutant, Tyrosine (Y) to Alanine (A) (protein, listed as Choristoneura fumiferana)
chain: LTANQQFLIARLIWYQDGYEQPSDEDLKRITQTWQQADDENEESDTPFRQITEMTILTVQLIVEFAKGLPGFAKISQPDQITLLKACSSEVMMLRVARRYDAASDSVLFANNQAYTRDNARKAGMAYVIEDLLHFCRCMYSMALDNIHYALLTAVVIFSDRPGLEQPQLVEEIQRYYLNTLRIYILNQLSGSARSSVIYGKILSILSELRTLGMQNSNMCISLKLKNRKLPPFLEEIWDV
B4: L234A: CfEcR-DEF LBD substitution mutant, Leucine (L) to Alanine (A) (protein, listed as Choristoneura fumiferana)
chain: LTANQQFLIARLIWYQDGYEQPSDEDLKRITQTWQQADDENEESDTPFRQITEMTILTVQLIVEFAKGLPGFAKISQPDQITLLKACSSEVMMLRVARRYDAASDSVLFANNQAYTRDNYRKAGMAYVIEDLLHFCRCMYSMALDNIHYALLTAVVIFSDRPGLEQPQLVEEIQRYYLNTLRIYILNQLSGSARSSVIYGKILSILSELRTLGMQNSNMCISLKLKNRKLPPFAEEIWDV
B5: W238A: CfEcR-DEF LBD substitution mutant, Tryptophan (W) to Alanine (A) (protein, listed as Choristoneura fumiferana)
chain: LTANQQFLIARLIWYQDGYEQPSDEDLKRITQTWQQADDENEESDTPFRQITEMTILTVQLIVEFAKGLPGFAKISQPDQITLLKACSSEVMMLRVARRYDAASDSVLFANNQAYTRDNYRKAGMAYVIEDLLHFCRCMYSMALDNIHYALLTAVVIFSDRPGLEQPQLVEEIQRYYLNTLRIYILNQLSGSARSSVIYGKILSILSELRTLGMQNSNMCISLKLKNRKLPPFLEEIADV
B6: L223A: CfEcR-DEF LBD substitution mutant, Leucine (L) to Alanine (A) (protein, listed as Choristoneura fumiferana)
chain: LTANQQFLIARLIWYQDGYEQPSDEDLKRITQTWQQADDENEESDTPFRQITEMTILTVQLIVEFAKGLPGFAKISQPDQITLLKACSSEVMMLRVARRYDAASDSVLFANNQAYTRDNYRKAGMAYVIEDLLHFCRCMYSMALDNIHYALLTAVVIFSDRPGLEQPQLVEEIQRYYLNTLRIYILNQLSGSARSSVIYGKILSILSELRTLGMQNSNMCISAKLKNRKLPPFLEEIWDV
B7: I51A: CfEcR-DEF LBD substitution mutant, Isoleucine (I) to Alanine (A) (protein, listed as Choristoneura fumiferana)
chain: LTANQQFLIARLIWYQDGYEQPSDEDLKRITQTWQQADDENEESDTPFRQATEMTILTVQLIVEFAKGLPGFAKISQPDQITLLKACSSEVMMLRVARRYDAASDSVLFANNQAYTRDNYRKAGMAYVIEDLLHFCRCMYSMALDNIHYALLTAVVIFSDRPGLEQPQLVEEIQRYYLNTLRIYILNQLSGSARSSVIYGKILSILSELRTLGMQNSNMCISLKLKNRKLPPFLEEIWDV
B8: M125A: CfEcR-DEF LBD substitution mutant, Methionine (M) to Alanine (A) (protein, listed as Choristoneura fumiferana)
chain: LTANQQFLIARLIWYQDGYEQPSDEDLKRITQTWQQADDENEESDTPFRQITEMTILTVQLIVEFAKGLPGFAKISQPDQITLLKACSSEVMMLRVARRYDAASDSVLFANNQAYTRDNYRKAGAAYVIEDLLHFCRCMYSMALDNIHYALLTAVVIFSDRPGLEQPQLVEEIQRYYLNTLRIYILNQLSGSARSSVIYGKILSILSELRTLGMQNSNMCISLKLKNRKLPPFLEEIWDV
B9: L230A: CfEcR-DEF LBD substitution mutant, Leucine (L) to Alanine (A) (protein, listed as Choristoneura fumiferana)
chain: LTANQQFLIARLIWYQDGYEQPSDEDLKRITQTWQQADDENEESDTPFRQITEMTILTVQLIVEFAKGLPGFAKISQPDQITLLKACSSEVMMLRVARRYDAASDSVLFANNQAYTRDNYRKAGMAYVIEDLLHFCRCMYSMALDNIHYALLTAVVIFSDRPGLEQPQLVEEIQRYYLNTLRIYILNQLSGSARSSVIYGKILSILSELRTLGMQNSNMCISLKLKNRKAPPFLEEIWDV
B10: F109A: CfEcR-DEF LBD substitution mutant, Phenylalanine (F) to Alanine (A) (protein, listed as Choristoneura fumiferana)
chain: LTANQQFLIARLIWYQDGYEQPSDEDLKRITQTWQQADDENEESDTPFRQITEMTILTVQLIVEFAKGLPGFAKISQPDQITLLKACSSEVMMLRVARRYDAASDSVLAANNQAYTRDNYRKAGMAYVIEDLLHFCRCMYSMALDNIHYALLTAVVIFSDRPGLEQPQLVEEIQRYYLNTLRIYILNQLSGSARSSVIYGKILSILSELRTLGMQNSNMCISLKLKNRKLPPFLEEIWDV
B11: R95A/A110P: CfEcR-DEF LBD double mutant, R95A and A110P (protein, listed as Choristoneura fumiferana)
chain: LTANQQFLIARLIWYQDGYEQPSDEDLKRITQTWQQADDENEESDTPFRQITEMTILTVQLIVEFAKGLPGFAKISQPDQITLLKACSSEVMMLAVARRYDAASDSVLFPNNQAYTRDNYRKAGMAYVIEDLLHFCRCMYSMALDNIHYALLTAVVIFSDRPGLEQPQLVEEIQRYYLNTLRIYILNQLSGSARSSVIYGKILSILSELRTLGMQNSNMCISLKLKNRKLPPFLEEIWDV
B12: Q21A: CfEcR-DEF LBD substitution mutant, Glutamine (Q) to Alanine (A) (protein, listed as Choristoneura fumiferana)
chain: LTANQQFLIARLIWYQDGYEAPSDEDLKRITQTWQQADDENEESDTPFRQITEMTILTVQLIVEFAKGLPGFAKISQPDQITLLKACSSEVMMLRVARRYDAASDSVLFANNQAYTRDNYRKAGMAYVIEDLLHFCRCMYSMALDNIHYALLTAVVIFSDRPGLEQPQLVEEIQRYYLNTLRIYILNQLSGSARSSVIYGKILSILSELRTLGMQNSNMCISLKLKNRKLPPFLEEIWDV
B13: A123F: CfEcR-DEF LBD substitution mutant, Alanine (A) to Phenylalanine (F) (protein, listed as Choristoneura fumiferana)
chain: LTANQQFLIARLIWYQDGYEQPSDEDLKRITQTWQQADDENEESDTPFRQITEMTILTVQLIVEFAKGLPGFAKISQPDQITLLKACSSEVMMLRVARRYDAASDSVLFANNQAYTRDNYRKFGMAYVIEDLLHFCRCMYSMALDNIHYALLTAVVIFSDRPGLEQPQLVEEIQRYYLNTLRIYILNQLSGSARSSVIYGKILSILSELRTLGMQNSNMCISLKLKNRKLPPFLEEIWDV

System: CfEcR-DEF
Assay: GAL4/mutant CfEcR-DEF + VP16/LmUSP-EF GAL4-driven luciferase reporter transactivation in NIH3T3 cells
Type: cell-based, Choristoneura fumiferana
Conditions: NIH3T3 cells, relative to Gal4/wild-type CfEcR-DEF switch activity; for Fold increase over WT, 2.5 μM GS™-E: 2.5 μM GS™-E non-steroidal ligand; for Fold increase over WT, 2.5 μM PonA: 2.5 μM PonA steroidal ligand
Procedure: DNAs corresponding to the various switch constructs outlined in Example 1, specifically switches 1.1-1.13, were transfected into mouse NIH3T3 cells (ATCC) or L57 cells (Dr. Peter Cherbas; Indiana University) as follows. Standard methods for culture and maintenance of the cells were followed. […] Superfect™ (Qiagen Inc.) was used for 3T3 cells and Lipofectamine™ (LifeTechnologies) was used for L57 cells as the transfection reagents. For 12-well plates, 4 μl of Superfect™ or Lipofectamine™ was mixed with 100 μl of growth medium. One μg of reporter construct and 0.25 μg of each receptor construct of the receptor pair to be analyzed were added to the transfection mix. […] The cells were harvested and reporter activity was assayed.
Cells were harvested 40 hours after adding ligands. […] Twenty μl of lysate were assayed.
Briefly, Applicants mutated amino acid residues predicted to be critical for ecdysteroid binding into alanine and created GAL4/mutantCfEcR-DEF cDNA gene expression cassettes as described in Example 1 above using the Quikchange PCR-mediated site-directed mutagenesis kit (Stratagene, La Jolla, Calif.). The mutated and the WT cDNAs were tested in GAL4-driven luciferase reporter assays.
DNAs corresponding to the various switch constructs outlined in Example 1, specifically switches 1.1-1.2, were transfected into mouse NIH3T3 cells (ATCC) as follows. […] Two μl of Superfect™ was mixed with 100 μl of growth medium and 50 ng of either GAL4/wild-type EcR or Gal4/mutant EcR cassette, 50 ng of VP16/LmUSP-EF and 200 ng of pFRLuc were added to the transfection mix. […] The cells were harvested and reporter activity was assayed as described above.

| Molecule | Fold increase over WT, 2.5 μM GS™-E [fold] | Fold increase over WT, 2.5 μM PonA [fold] |
| --- | --- | --- |
| B1 | 0.4 | 0.006 |
| B2 | 0.007 | 0.007 |
| B3 | 0.001 | 0.006 |
| B4 | 0.001 | 0.006 |
| B5 | 0.002 | 0.013 |
| B6 | 0.118 | 0.007 |
| B7 | 0.003 | 0.004 |
| B8 | 0.005 | 0.007 |
| B9 | 0.001 | 0.006 |
| B10 | 0.22 | 0.005 |
| B11 | 0.4 | 0.007 |
| B12 | 0.32 | 0.37 |
| B13 | 0.09 | 0.005 |
